The nature of data set [1]: Effect of pH on insulin/DEAE-dextran solutions (pH and appearance). The format is physicochemical. How it is done:
Solutions containing DEAE-Dextran 1% w/v and Na-Insulin 167 IU/ml were prepared, separately and combined, in phosphate buffer (pH 7.3) and their pH measured using a Gallenkamp pH stick. The appearance of each solution was noted. The effect of addition of 1M sodium hydroxide solution (NaOH) or 0.1M hydrochloric acid (HCl) was determined.

Data set [2] can be described thus: Intranasal absorption of insulin solutions in anaesthetised rats: blood glucose. The format is in vivo, rat (male Wistar). As to conditions: phosphate buffer pH 7.3; for Blood Glucose Levels: 120 minutes after intranasal administration, 16.7 IU/kg insulin, level at administration about 3.5 to 4.0. The protocol:
A rat in vivo experimental model, modified from that originally described by Hirai et al., Int. […] Male Wistar rats (Bantin and Kingman) of approximate weight 200-250 g, fasted overnight for about 20 hours, are anesthetized by i.p. injection of 80 mg/kg pentobarbitone sodium (60 mg/ml Sagatal™, May and Baker) with further i.p. injections of 0.05 ml when necessary to maintain a suitable level of anaesthesia. The rats are tracheotomized, the esophagus sealed and the carotid artery and jugular vein cannulated.
The DEAE-dextran used in these experiments has a molecular weight of 500,000.
This will give the same end solutions. […] An insulin solution containing the Laureth-9 enhancer system was prepared in a similar way.
A volume of 20 μl was administered.
Blood samples of 0.2 ml were collected in Fluoride oxalate tubes from the carotid artery at 10 and 5 min. prior to the insulin administration and at 5, 15, 30, 45, 60, 90, 120, 180, 240 and 300 min. post-administration. The samples were kept for a short time on crushed ice until analyzed on a Yellow Springs 23 AM glucose analyser by the glucose oxidase method.

As to “Insulin alone: semisynthetic human Na-insulin, 167 IU/ml in phosphate buffer”, the “pH at which solution became turbid on addition of acid” value in data set [1] (0.1M HCl) was 6.65. The “pH at which solution cleared / was clear on addition of acid” value in data set [1] (0.1M HCl) turned out to be 4.14. Also, the “appearance on addition of 1.0M NaOH” value in data set [1] (1.0M NaOH) was “no effect on solution appearance which remained clear”. The substance also yielded a pH of solution in data set [1] (DEAE-dextran 1% w/v and/or Na-insulin 167 IU/ml in phosphate buffer (pH 7.3)) of 7.38. Besides, the appearance of solution entry in data set [1] (as prepared in phosphate buffer, no acid or base added) is recorded as “clear”. The figures for the “Blood Glucose Levels” value in data set [2] and in data set [2] (listed as insulin solution alone) were roughly 5.1 mmol/L and “about 5 mmol/l”, respectively. For the same substance, the “effect on blood glucose level (in words)” value in data set [2] (intranasal) was “does not significantly lower the blood glucose level”.

Source of the values: patent US5744166A, “Drug delivery compositions” (Danbiosyst UK Limited, priority 1989, dated 1998).
